Paper PMC6269598

How the values were obtained:
PGT121 = experiment: SEC; each antibody alone, stored at 30°C; data not shown
[1] = SEC; each antibody alone at 100 mg/mL (second study also 50 mg/mL) in 20 mM acetate, 9% sucrose, 0.01% polysorbate 80, pH 5.2, stored at 40°C (also 25°C) up to 12 weeks; diluted 100-fold before SE-HPLC; TSKgel G3000SWxl, 0.2 M sodium phosphate pH 6.8, column at 30°C; dimer and multimer defined by …
3BNC117 [2] = experiment: SEC; each antibody alone at 100 mg/mL (second study also 50 mg/mL) in 20 mM acetate, 9% sucrose, 0.01% polysorbate 80, pH 5.2, stored at 40°C (also 25°C) up to 12 weeks; diluted 100-fold before SE-HPLC; TSKgel G3000SWxl, 0.2 M sodium phosphate pH 6.8, column at 30°C; dimer and multimer defined by elution time relative to the monomer
3BNC117 [3] = experiment: SEC; each antibody alone, stored at 30°C; data not shown

For PGT121 (antibody), which stoichiometry N (PGT121) is on record?
Its stoichiometry N is 2.

With 3BNC117 as the substance, how does the “increase of the dimer's share of the SE-HPLC area against day 0 (12 weeks, 40°C)” value [1] read?
The value was “∼6% increase compared to day 0 at 40 °C”.

With PGT121 as the substance, how does the “increase of the multimers' share of the SE-HPLC area against day 0 (12 weeks, 40°C)” value [1] read?
The value was “∼3% increase compared to day 0 at 40 °C”.

With 3BNC117 (antibody) as the substance, how does the rate of dimer formation at 40°C relative to PGT121 (3BNC117 [2]) read?
Its rate of dimer formation at 40°C relative to PGT121 is 3.5 fold.

What about the stoichiometry N (3BNC117 [2]) of the same substance?
Its stoichiometry N is 2.

What about the stoichiometry N (3BNC117 [3]) of the same substance?
Its stoichiometry N is 2.
